T1: Human nectin-4 ECD-6His (TNT-175) (human, UniProt Q96NY8 32-349)
T1 construct: the entry holds the extracellular domain with the C-terminal 6His tag
T1 sequence: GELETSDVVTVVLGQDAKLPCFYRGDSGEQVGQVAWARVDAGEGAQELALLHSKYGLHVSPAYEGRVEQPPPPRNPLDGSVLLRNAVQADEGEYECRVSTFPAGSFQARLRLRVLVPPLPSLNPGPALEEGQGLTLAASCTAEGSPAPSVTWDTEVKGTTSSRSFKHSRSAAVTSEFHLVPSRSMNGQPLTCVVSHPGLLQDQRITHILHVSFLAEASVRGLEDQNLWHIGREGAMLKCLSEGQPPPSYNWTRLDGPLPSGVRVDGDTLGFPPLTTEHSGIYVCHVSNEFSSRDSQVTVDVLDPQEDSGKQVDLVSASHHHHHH

T2: human nectin-4 on cells (human, UniProt Q96NY8 32-510)
T2 construct: whole, on cells; also called PVRL4
T2 sequence (looked up): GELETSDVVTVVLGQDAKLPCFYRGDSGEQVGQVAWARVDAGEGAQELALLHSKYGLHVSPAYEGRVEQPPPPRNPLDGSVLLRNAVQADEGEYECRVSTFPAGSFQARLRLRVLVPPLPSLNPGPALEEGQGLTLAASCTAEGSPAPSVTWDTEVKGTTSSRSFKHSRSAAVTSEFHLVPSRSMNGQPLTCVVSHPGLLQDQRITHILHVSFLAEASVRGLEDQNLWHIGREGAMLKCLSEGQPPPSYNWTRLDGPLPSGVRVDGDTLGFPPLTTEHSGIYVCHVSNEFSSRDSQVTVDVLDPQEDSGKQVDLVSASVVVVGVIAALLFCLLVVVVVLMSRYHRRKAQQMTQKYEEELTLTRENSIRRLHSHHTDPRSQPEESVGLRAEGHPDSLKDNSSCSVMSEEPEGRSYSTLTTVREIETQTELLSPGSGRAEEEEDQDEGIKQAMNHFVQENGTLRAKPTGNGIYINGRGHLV

B1: TNT-190 (antibody, mouse IgG2a, kappa)
heavy: EVQLVQSGGGLVKPGGSLRLSCAASGFTFSDYYMSWVRQAPGKGLEWVSAISGSGGSTYYADSVKGRFTISRDNSKNTLYLQMNSLRAEDTAVYYCARDEGYYYMDVWGKGTTVTVSSAKTTAPSVYPLAPVCGDTTGSSVTLGCLVKGYFPEPVTLTWNSGSLSSGVHTFPAVLQSDLYTLSSSVTVTSSTWPSQSITCNVAHPASSTKVDKKIEPRGPTIKPCPPCKCPAPNLLGGPSVFIFPPKIKDVLMISLSPIVTCVVVDVSEDDPDVQISWFVNNVEVHTAQTQTHREDYNSTLRVVSALPIQHQDWMSGKEFKCKVNNKDLPAPIERTISKPKGSVRAPQVYVLPPPEEEMTKKQVTLTCMVTDFMPEDIYVEWTNNGKTELNYKNTEPVLDSDGSYFMYSKLRVEKKNWVERNSYSCSVVHEGLHNHHTTKSFSRTPGRPQGFGPP
light: EIVLTQSPATLSLSPGERATLSCRASQSVSSYLAWYQQKPGQAPRLLIYDASNRATGIPARFSGSGSGTDFTLTISSLQAEDFATYYCQQSYSTRFGGGTKVEIKRADAAPTVSIFPPSSEQLTSGGASVVCFLNNFYPKDINVKWKIDGSERQNGVLNSWTDQDSKDSTYSMSSTLTLTKDEYERHNSYTCEATHKTSTSPIVKSFNRNEC
B2: TNT-153 (antibody, mouse IgG2a, kappa)
heavy: EVQLVESGGGLVQPGGSLRLSCAASGFTFSSYNMNWVRQAPGKGLEWVSYISSSSSTIYYADSVKGRFTISRDNAKNSLSLQMNSLRDEDTAVYYCARAYYYGMDVWGQGTTVTVSSAKTTAPSVYPLAPVCGDTTGSSVTLGCLVKGYFPEPVTLTWNSGSLSSGVHTFPAVLQSDLYTLSSSVTVTSSTWPSQSITCNVAHPASSTKVDKKIEPRGPTIKPCPPCKCPAPNLLGGPSVFIFPPKIKDVLMISLSPIVTCVVVDVSEDDPDVQISWFVNNVEVHTAQTQTHREDYNSTLRVVSALPIQHQDWMSGKEFKCKVNNKDLPAPIERTISKPKGSVRAPQVYVLPPPEEEMTKKQVTLTCMVTDFMPEDIYVEWTNNGKTELNYKNTEPVLDSDGSYFMYSKLRVEKKNWVERNSYSCSVVHEGLHNHHTTKSFSRTPGLLQGG
light: DIQMTQSPSSVSASVGDRVTITCRASQGISGWLAWYQQKPGKAPKFLIYAASTLQSGVPSRFSGSGSGTDFTLTISSLQPEDFATYYCQQANSFPPTFGGGTKVEIKRADAAPTVSIFPPSSEQLTSGGASVVCFLNNFYPKDINVKWKIDGSERQNGVLNSWTDQDSKDSTYSMSSTLTLTKDEYERHNSYTCEATHKTSTSPIVKSFNRNEC
B3: TNT-196 (antibody, mouse IgG2a, kappa)
heavy: EVQLVESGGGLVQPGGSLRLSCAASGFTFSDYYMSWIRQAPGKGLEWVSGISWNSGSIGYADSVKGRFTISRDNSKNTLYLQMNSLRAEDTAVYYCASSGSWYLPLDYWGQGTLVTVSSAKTTAPSVYPLAPVCGDTTGSSVTLGCLVKGYFPEPVTLTWNSGSLSSGVHTFPAVLQSDLYTLSSSVTVTSSTWPSQSITCNVAHPASSTKVDKKIEPRGPTIKPCPPCKCPAPNLLGGPSVFIFPPKIKDVLMISLSPIVTCVVVDVSEDDPDVQISWFVNNVEVHTAQTQTHREDYNSTLRVVSALPIQHQDWMSGKEFKCKVNNKDLPAPIERTISKPKGSVRAPQVYVLPPPEEEMTKKQVTLTCMVTDFMPEDIYVEWTNNGKTELNYKNTEPVLDSDGSYFMYSKLRVEKKNWVERNSYSCSVVHEGLHNHHTTKSFSRTPGRPQGFGPP
light: DIQMTQSPSSLSASVGDRVTITCQASQDISNYLNWYQQKPGKVPKLLIYAASTLQSGVPSRFSGSGSGTDFTLTISSLQPEDFATYYCQQSYSTPLTFGGGTKVEIKRADAAPTVSIFPPSSEQLTSGGASVVCFLNNFYPKDINVKWKIDGSERQNGVLNSWTDQDSKDSTYSMSSTLTLTKDEYERHNSYTCEATHKTSTSPIVKSFNRNEC

Target: T1, Human nectin-4 ECD-6His (TNT-175)
Experiment: SPR ProteOn, mAb on protein A
Protocol: Initial testing of binding of nectin-4 antibodies to nectin-4. […] Biotinylated protein A (15 μg/mL) was immobilized to the surface of an NLC chip. 30 nM of purified mAb supernatant was diluted in PBS-T and captured over the protein A surface. Serial dilutions of human nectin-4 were injected over the mAb-coated chips, and binding kinetics were determined. Chips were regenerated using 4:1 v/v of IgG elution butter/4M NaCl.

| Binder | Kd [nM] | koff [s⁻¹] | kon [M⁻¹ s⁻¹] |
| --- | --- | --- | --- |
| B1 | 31.4 | 0.00831 | 265000 |
| B2 | 3.8 | 0.00399 | 1.05e+06 |
| B3 | 15.2 | 0.0245 | 1.62e+06 |

Target: T2, human nectin-4 on cells
Experiment: flow cytometry MFI, MNK74 (nectin-4 positive) over AGS (negative)
Protocol: Cell binding of nectin-4 antibodies. Cell binding of the nectin-4 antibodies was also assessed. MNK74 (nectin-4 positive) and AGS (nectin-4 negative) cells were obtained from ATCC and cultured according to their protocols. Cells were detached with TrypLE (Gibco) and washed by centrifugation for five minutes at 400×g with FACS buffer (PBS+2% FBS). Cells were resuspended in FACS buffer, plated in 96-well format (0.25 e6/well) then pelleted by centrifugation for five minutes at 400×g. Cells were stained at 4° C. in Fixable Viability Dye eFluor 506 (eBioscience) diluted 1:4,000 in PBS. […] Cells were centrifuged, washed once in FACS buffer and stained at 4° C. with Goat F(ab′)₂ anti-Mouse IgG APC (Southern Biotech) diluted 1:400 in FACS buffer for 30 minutes or appropriate anti-human IgG. Cells were centrifuged, washed twice and fixed in 0.5% paraformaldehyde. Cells were analyzed on Attune NxT Flow Cytometer (Thermo Fisher), with subsequent data analysis by Flowjo 10.7 (BD). Dead cells were excluded by gating on the eFluor 506-negative population. […] Binding was assessed by median fluorescent intensity.

| Binder | Fold-change of binding to MNK74 compared to control AGS [fold] |
| --- | --- |
| B1 | 5.1 |
| B2 | 7.4 |
| B3 | 6 |

Target: T1, Human nectin-4 ECD-6His (TNT-175)
Experiment: competition ELISA; nectin-4 ECD premixed with TNT201, captured by the coat antibody; % of signal without premix antibody
Protocol: (§1) Competition experiments of nectin-4 antibodies. ELISA plates were coated overnight at 4° C. with goat anti-mouse IgG at […] in PBS. […] As positive control, nectin-4 was diluted at same concentrations without a premix antibody. Two wells per plate were allocated for diluent only as negative/background control. Plates were washed as previously, 50 μL/well of premix was added to each plate and incubated for one hour. Plates were washed then incubated at room temperature for one hour with Rabbit anti 6× HIS HRP diluted 1:4,000 in diluent. Plates were washed once more and incubated at room temperature for 20 minutes with 50 μL/well of ABTS substrate. […] Binding was measured as an Optical Density (O.D.) value normalized to background and calculated as a percentage of positive control at the lowest nectin-4 dilution for greatest resolution.

| Binder | % of Positive [%] |
| --- | --- |
| B1 | 1.2 |
| B2 | 2.8 |
| B3 | 0.9 |

Target: T1, Human nectin-4 ECD-6His (TNT-175)
Experiment: competition ELISA; nectin-4 ECD premixed with TNT202, captured by the coat antibody; % of signal without premix antibody
Protocol: as §1

| Binder | % of Positive [%] |
| --- | --- |
| B1 | 0.8 |
| B2 | 3.6 |
| B3 | 2.8 |

Target: T1, Human nectin-4 ECD-6His (TNT-175)
Experiment: competition ELISA; nectin-4 ECD premixed with TNT203, captured by the coat antibody; % of signal without premix antibody
Protocol: as §1

| Binder | % of Positive [%] |
| --- | --- |
| B1 | 3.5 |
| B2 | 28.8 |
| B3 | 18.3 |

Target: T1, Human nectin-4 ECD-6His (TNT-175)
Experiment: competition ELISA; nectin-4 ECD premixed with TNT204, captured by the coat antibody; % of signal without premix antibody
Protocol: as §1

| Binder | % of Positive [%] |
| --- | --- |
| B1 | 0.7 |
| B2 | 4.2 |
| B3 | 2.6 |

Target: T1, Human nectin-4 ECD-6His (TNT-175)
Experiment: competition ELISA; nectin-4 ECD premixed with TNT205, captured by the coat antibody; % of signal without premix antibody
Protocol: as §1

| Binder | % of Positive [%] |
| --- | --- |
| B1 | 13.5 |
| B2 | 50 |
| B3 | 35.9 |

Target: T1, Human nectin-4 ECD-6His (TNT-175)
Experiment: competition ELISA; nectin-4 ECD premixed with TNT206, captured by the coat antibody; % of signal without premix antibody
Protocol: as §1

| Binder | % of Positive [%] |
| --- | --- |
| B1 | 0.5 |
| B2 | 7.7 |
| B3 | 5.5 |

Target: T1, Human nectin-4 ECD-6His (TNT-175)
Experiment: competition ELISA; nectin-4 ECD premixed with TNT207, captured by the coat antibody; % of signal without premix antibody
Protocol: as §1

| Binder | % of Positive [%] |
| --- | --- |
| B1 | 0.3 |
| B2 | 2.2 |
| B3 | 1.3 |

Target: T1, Human nectin-4 ECD-6His (TNT-175)
Experiment: competition ELISA; nectin-4 ECD premixed with TNT208, captured by the coat antibody; % of signal without premix antibody
Protocol: as §1

| Binder | % of Positive [%] |
| --- | --- |
| B1 | 0.3 |
| B2 | 3.5 |
| B3 | 2 |

Target: T1, Human nectin-4 ECD-6His (TNT-175)
Experiment: competition ELISA; nectin-4 ECD premixed with TNT209, captured by the coat antibody; % of signal without premix antibody
Protocol: as §1

| Binder | % of Positive [%] |
| --- | --- |
| B1 | 3.4 |
| B2 | 26.2 |
| B3 | 17.8 |

Target: T1, Human nectin-4 ECD-6His (TNT-175)
Experiment: competition ELISA; nectin-4 ECD premixed with TNT210, captured by the coat antibody; % of signal without premix antibody
Protocol: as §1

| Binder | % of Positive [%] |
| --- | --- |
| B1 | 0.3 |
| B2 | 4 |
| B3 | 1.5 |

Target: T1, Human nectin-4 ECD-6His (TNT-175)
Experiment: competition ELISA; nectin-4 ECD premixed with TNT211, captured by the coat antibody; % of signal without premix antibody
Protocol: as §1

| Binder | % of Positive [%] |
| --- | --- |
| B1 | 2.4 |
| B2 | 22.2 |
| B3 | 13.8 |

Target: T1, Human nectin-4 ECD-6His (TNT-175)
Experiment: competition ELISA; nectin-4 ECD premixed with TNT212, captured by the coat antibody; % of signal without premix antibody
Protocol: as §1

| Binder | % of Positive [%] |
| --- | --- |
| B1 | 1.5 |
| B2 | 5.6 |
| B3 | 1.8 |

Reference: patent US20240382610A1 (TALLAC THERAPEUTICS, published 2024)
